Measured values reported in patent publication US20130157959.

Molecular target: in vitro translated 35S-labelled p53 (wild-type) (UniProt P04637)

GST-Hades RING-mutant peptide (C302S/C305S)
in vitro ubiquitination of p53 with E1, E2 (UbcH5c) and His-ubiquitin, anti-p53 immunoblot: The p53 ubiquitination was only induce by Hades
